Paper doi:10.1101/2023.08.20.554024, “Structural framework for the understanding spectroscopic and functional signatures of the cyanobacterial Orange Carotenoid Protein families” (bioRxiv, 2023)

Assays:
GcapOCP2(ECH) = GcapOCP2(ECH) (Gloeocapsa sp. PCC 7428); assay: cell-based or functional assay
ΔNTE-SynOCP1(ECH) = target: T1, ΔNTE-SynOCP1(ECH) (Synechocystis sp. PCC 6803, UniProt P74102 13-317); assay: SEC; 10 μM OCP and 20 μM FRP pre-incubated in SEC buffer (20 mM Tris-HCl pH 7.6, 150 mM NaCl) for 15 min at room temperature; Superdex 200 Increase 5/150, 0.45 ml/min; profiles at 280 or 460 (or 500) nm, compared with algebraic sums of the single profiles; settings: both partners purified
T1 construct: Orange Carotenoid Protein (OCP1), Synechocystis sp; PCC 6803, Uniprot P74102, lacking residues Met1-Phe12 (the N-terminal extension); also called ΔNTE mutant of SynOCP1; ΔNTE-SynOCP1 holoform; source: obtained earlier [24]
T1 sequence (looked up): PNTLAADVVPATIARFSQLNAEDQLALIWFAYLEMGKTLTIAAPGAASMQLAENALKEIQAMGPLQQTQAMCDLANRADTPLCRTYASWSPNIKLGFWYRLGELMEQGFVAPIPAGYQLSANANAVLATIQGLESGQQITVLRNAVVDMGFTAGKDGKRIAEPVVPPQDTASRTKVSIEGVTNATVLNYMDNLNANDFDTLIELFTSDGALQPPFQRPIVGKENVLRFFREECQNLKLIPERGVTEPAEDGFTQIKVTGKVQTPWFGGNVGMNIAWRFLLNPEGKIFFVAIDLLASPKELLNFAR

τ1/2 of the R-O transition of GcapOCP2 (OD550 after switching off blue LED) with a two-fold molar excess of SynFRP, 5-23 °C (203 to 250 s at 5°C, 12 to 16 s at 20°C) (GcapOCP2(ECH)): 250 s
binding result (ΔNTE-SynOCP1(ECH)): binds
B1: Fluorescence Recovery Protein from Synechocystis sp. PCC 6803 (natural protein, UniProt P74103 1-109, looked up)
chain: MLQTAEAPWSQAETQSAHALFRKAYQRELDGLLATVQAQASQITQIDDLWKLHDFLSAKRHEIDGKYDDRQSVIIFVFAQLLKEGLVQAEELTFLAADKQSKIKALARL
notes: Fluorescence Recovery Protein (FRP), Synechocystis sp; PCC 6803, Uniprot P74103; also called SynFRP; FRP; source: obtained in previous works [24,30] as electrophoretically homogeneous preparation devoid of tags
